This is an account of results in the supplement of paper PMC9170038.

This data set concerns MS2 coat protein. Kind of data set: apparent KD of MS2 coat protein; higher = weaker reporter binding. The note with it: Eterna round: R107. As for the experimental part:
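RNA-MaP round R107: designed RNA switches with theophylline, tryptophan, arginine or FMN aptamers are transcribed on-chip within common flanks. They are titrated with SNAP-549-labelled MS2 coat protein in RNA-MaP buffer (100 mM Tris pH 7.5, 80 mM KCl, 4 mM MgCl2), without ligand or with the indicated ligand. Median apparent KD per design.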

Where [1] appears, read: input ligand: theophylline 20 uM.
Setting [2] is: input ligand: theophylline 2 mM.
[3] abbreviates: input ligand: tryptophan 2.4 mM.

As to “ACUCGAGGUGGAAGGAGCGGGAGACAUGAGCAUCACAUGAGGAUCACCCAUGUAGGAUCAUCCCAGGUAGGUCGCCAUGUCGAAA [avtamullin]”, the “apparent KD of MS2 coat protein” value is 105 nM (input ligand: arginine 13.2 mM); 217 nM (input ligand: none); 147 nM under setting [1]; 276 nM under setting [2]; 165 nM under setting [3].

In the case of “ACUGUCUUUGAUGAUAUGUAUGGGUCAUUGCGAGGACCGGUACGGCCGCCACUCGGUCCGCCACAUGAGGAUCACCCAUGUCUAU [theeternabot_exclusion_MS2_Trp_A_37]”, the “apparent KD of MS2 coat protein” value is 56.8 nM (input ligand: arginine 13.2 mM), 94.6 nM under setting [1] and 195 nM under setting [2].

As to “AGAACCCAAGAGGAUACCAGAACGACAAUCAAAUCUUUUUACAUGAGGAUCACCCAUGUUUUCCCUUGGCAGCCUCAUGCACGAC [theeternabot_exclusion_MS2_Theo_B_43]”, the “apparent KD of MS2 coat protein” value (input ligand: arginine 13.2 mM) is 47.1 nM, the “apparent KD of MS2 coat protein” value under setting [1] was found to be 108 nM and the “apparent KD of MS2 coat protein” value under setting [3] is 59.6 nM.

In the case of “AGACAUGAGGAUCACCCAUGUAGUACGGAUACCAGAUCCAGAUGCGUCCCUUGGCAGCUGUGGUACAGCGUUACAUCGCUCGUAG [Exclusion - Theophylline A (Freestyle 23)]”, the “apparent KD of MS2 coat protein” value (input ligand: arginine 13.2 mM) is 16 nM, the “apparent KD of MS2 coat protein” value under setting [1] was determined as 29.9 nM and the “apparent KD of MS2 coat protein” value under setting [3] came out at 18.6 nM.

In the case of “AGAGCAUUGACGGCCGCCACUCAUGUCACAUGAGGAUCACCCAUGUGAUGGGUGAUCGCCCGGUUGAGGACCGGGUCAAUGCUCA [Omei Tryp SS B v2]”, the “apparent KD of MS2 coat protein” value (input ligand: arginine 13.2 mM) turned out to be 42.9 nM, the “apparent KD of MS2 coat protein” value under setting [1] was 123 nM and the “apparent KD of MS2 coat protein” value under setting [2] amounted to 121 nM.

Turning to “AGAGUCAGACAAAAGUCUGGCUCAGCCGAAGGAGCGUCCGAAAGGACAGGUAGGUCGCGGUUCCAUGAGGAUCACCCAUGGUCCU [ArgAS 28 #OpenEnded #AlternativeMS2]”, the “apparent KD of MS2 coat protein” value (input ligand: arginine 13.2 mM) stood at 47.1 nM; the “apparent KD of MS2 coat protein” value (input ligand: none) turned out to be 85 nM; the “apparent KD of MS2 coat protein” value under setting [1] was 85.1 nM; the “apparent KD of MS2 coat protein” value under setting [2] was found to be 119 nM; the “apparent KD of MS2 coat protein” value under setting [3] is 71.1 nM.

Turning to “AGAGUCAGACAAAAGUCUGGCUCAGCCGAAGGAGCGUCCGAAAGGACAGGUAGGUCGCGGUUGCAUGAGGAUCACCCAUGUUCCU [ArgAS 30 #OpenEnded #AlternativeMS2]”, the “apparent KD of MS2 coat protein” value by setting is: (input ligand: arginine 13.2 mM) 76.7 nM; (input ligand: none) 286 nM; under setting [1], 399 nM; under setting [2], 528 nM; under setting [3], 324 nM.

For “AGAGUCUAGUCGGCCGCCACUCAUGUCCUAAGGACAUGAGGAUCACCCAUGUACCAAAGGUACAUGAGGACCGGGACUGGACUCA [Omei Tryp B SS C v1]”, the “apparent KD of MS2 coat protein” value was 23.3 nM (input ligand: arginine 13.2 mM); 75.9 nM (input ligand: none); 345 nM under setting [1]; 189 nM under setting [2]; 9.28 nM under setting [3].

In the case of “AGAGUUAGACAAAAGUCUAGCUCACCAGAAGGAGCGUCCGAAAGGACAGGUAGGUCGCUGGUGCAUGAGGAUCACCCAUGUUCCU [ArgAS 20 #OpenEnded #AlternativeMS2]”, the “apparent KD of MS2 coat protein” value was 26.9 nM (input ligand: arginine 13.2 mM); 115 nM (input ligand: none); 211 nM under setting [1]; 313 nM under setting [2]; 150 nM under setting [3].

Turning to “AGAUGACACAGUGGAUAGCAAGAUGCCGAUACCAGCUAGGAAACUAGCCCUUGGCAGCGGUACAUGAGGAUCACCCAUGUAUCCU [EThA NP+V+V2 #10]”, the “apparent KD of MS2 coat protein” value reads like this: (input ligand: arginine 13.2 mM) 12.4 nM; under setting [1], 15.1 nM; under setting [3], 13.4 nM.

As for “AGAUUACAUGUUUUAAUACGGAAAACUGAUACCAGUGUAUCUAUUCACCCUUGGCAGCAGCAACAUGAGGAUCACCCAUGUAUUA [JR_SSTheophyA_Sub016]”, the “apparent KD of MS2 coat protein” value (input ligand: arginine 13.2 mM) is 17.9 nM, the “apparent KD of MS2 coat protein” value under setting [1] was found to be 21.5 nM and the “apparent KD of MS2 coat protein” value under setting [3] came to 20 nM.

As to “AGAUUUAUUUUGACCGGGCUCAUUCCUGAAGGAGCGCAGAACAAUGCAGGUAGGUCGCAGGACAUGAGGAUCACCCAUGUCAAGC [Isaes]”, the “apparent KD of MS2 coat protein” value runs as follows: (input ligand: arginine 13.2 mM) 14.2 nM; (input ligand: none) 20.7 nM; under setting [1], 18.3 nM; under setting [2], 19.9 nM; under setting [3], 18.8 nM.

In the case of “AGCACUGUGACGGCCGCCACUACAUAAAUAGGGUGGUCAGGUUCAUUACAUGAGGAUCACCCAUGUAGGACCGGGUCUCAGUGCA [Omei Trp Exc B A v7]”, the “apparent KD of MS2 coat protein” value was found to be 10 nM (input ligand: arginine 13.2 mM), 11.9 nM under setting [1] and 11 nM under setting [2].

“AGCAGAUCCCAGCGAAAGCUGGGAUCUGCACGAGGACCGGUACGGCCGCCACUCGAGGACAUGAGGAUCACCCAUGUACCGGUCA [Glorfindel]”: the “apparent KD of MS2 coat protein” value is, setting by setting: (input ligand: arginine 13.2 mM) 174 nM; (input ligand: none) 75.8 nM; under setting [1], 64.6 nM; under setting [2], 238 nM; under setting [3], 78.3 nM.
